One may read the Kd as a measure of binding affinity in units of concentration.

The values that follow come from article PMC2836575.

The target of experiment [1] is aprataxin FHA domain, recombinant, wild type (human) (UniProt Q7Z2E3). The experiment can be described thus: ITC. On the technique in general: In ITC the heat of successive injections is recorded.
The target of experiment [2] is aprataxin FHA domain, recombinant, Lys38Ala (human) (UniProt Q7Z2E3). The experiment is described as follows: ITC.

Turning to “MDC1 14-residue peptide phosphorylated only on T331”, the equilibrium dissociation constant (Kd) in experiment [1] was 58 µM.
Turning to “MDC1 14-residue peptide phosphorylated on S329 and T331”, the figures for the dissociation constant Kd in experiment [2] and in experiment [1] were 80 µM and 5.6 µM, respectively.
